From US8008256B2, “Combination therapy for treatment of cancer” (priority 2006, dated 2011)

B1: native CN (protein)
chain: DAPANPCCDAATCKLTTGSQCADGLCCDQCKFMKEGTVCRRARGDDLDDYCNGISAGCPRNPFH

What was measured:
[1] = molecular target: T1, GPIIb/IIIa (integrin αIIbβ3) (Homo sapiens, UniProt P05106+P08514); test: platelet aggregation inhibition assay (ADP induced, platelet-rich plasma); format: cell-based
T1 construct: endogenous in cells
Description: The recombinant CN products were evaluated for biological activity by a platelet aggregation inhibition assay. According to this assay, CN binding to GPIIb/IIIa (integrin αIIbβ3) in an RGD dependent manner inhibits ADP induced platelet aggregation (Trikha, Rote, et al. 1994). In this assay, potential inhibitors are added to fresh platelet-rich plasma, and after minute, ADP is added to a final concentration of 1 μM to induce aggregation. If inhibitor is present, functional aggregation will not occur. The IC50 is defined as the concentration at which 50% of the activity is inhibited, and is used as a measure of the potency of an inhibitor.

MDA-MB-435 cells = test: MDA-MB-435 cell invasion through Matrigel/ECMatrix in modified Boyden chamber; format: cell-based, human; settings: 10, 100, 1000 nM; 8 hrs in Boyden chamber
Description: (§1) Pretreated cells were allowed to adhere for 1 hr at 25° C., and after non-adherent cells were washed away, the number of adherent cells for each condition was estimated using the MTS cell viability assay. In the cell invasion assay, an invasion chamber consisting of cell culture inserts that fit into 24-well tissue culture plate has been utilized. The inserts contain an 8 μm-pore size polycarbonate membrane, over which a thin layer of ECMatrix™ was applied. The ECMatrix™ serves as an in vitro reconstituted basement membrane and is a solid gel of ECM proteins prepared from the Engelbreth Holm-Swarm (EHS) mouse tumor. The ECM layer occludes the membranes pores, blocking non-invasive cells to migrate through. The cells were incubated in the presence of various concentrations (10, 100, 1000 nM) of either native CN or Vicrostatin for 30 min at 25° C. and then allowed to migrate in the Boyden chamber for 8 hrs. At the 8 hr time point the cells that invaded through the pores into the lower chamber were measured. The numbers of invaded cells for each condition were approximated by quantitating the retrieved labeled DNA using a fluorescent plate reader. The results were calculated in % invasion, where the untreated control was considered as 100% invasion.

[2] = system: MDA-MB-435 breast carcinoma cells; test: inhibition of MDA-MB-435 cell adhesion to immobilized fibronectin (Fn); format: cell-based, human; settings: pretreatment 30 min, 0-1000 nM; adhesion 1 hr at 25° C.; MTS
Description: as §1

[3] = system: MDA-MB-435 breast carcinoma cells; test: inhibition of MDA-MB-435 cell adhesion to immobilized vitronectin (Vn); format: cell-based, human; settings: pretreatment 30 min, 0-1000 nM; adhesion 1 hr at 25° C.; MTS
Description: as §1

PC-3 tumors = test: PC-3 xenograft tumor growth; format: in vivo, athymic male nude mice (Balb/c/nu/nu mice); settings: for mean tumor volume after four weeks: docetaxel i.p. 6 then 4 mg/kg twice a week, CN 60 μg/day osmotic mini-pump, control 378±49; for suppression of growth of PC-3 tumors: four weeks treatment
Description: 100 μl of PC-3 cell suspension (1×10^6 cells) (ATCC.org, Manassas, Va.) was mixed with an equal volume, 100 μl of Matrigel basement membrane matrix (BD Biosciences, Bedford, Mass.) and injected subcutaneously into the flank region of athymic male nude mice (Balb/c/nu/nu mice) (Charles River Laboratory, Wilmington, Mass.). Four weeks after inoculation, 32 mice with PC-3 tumors were randomized into four groups with 8 mice in each group. The control group was treated with PBS and released from Alzet osmotic mini-pumps for four weeks. The second group was treated with docetaxel injections intraperitoneally at a dose of 6 mg/kg twice a week for two weeks and then switched to 4 mg/kg twice a week for two weeks. The third group was treated with contortrostatin (CN) at a dose of 60 μg/day which was continually released from subcutaneously implanted Alzet osmotic mini-pumps for four weeks. The fourth group was treated with a combination of docetaxel and CN at doses indicated in groups 2 and 3 for four weeks. Tumor volume was measured one a week and are calculated according to the formula: length×width^2×0.52.

[4] = liposome encapsulation efficiency (BCA protein assay); format: physicochemical
Description: Endotoxin-free VN containing liposomes (referred to as LVN) and endotoxin-free native CN containing liposomes (referred to as LCN) were prepared utilizing a probe sonication previously described (Fujii, Chang et al. 1997). Briefly, the lipids (disteroylphosphatidylcholine, cholesterol and polyethylene glycol derivatized lipid) were dissolved in a chloroform/methanol solution. Thin lipid films were created by pipetting aliquots of the lipid solution into round bottom glass tubes followed by solvent evaporation at 65° C. under a stream of nitrogen gas. The films were placed under vacuum for at least 24 hours to remove residual organic solvent. Liposomes formed following hydration of the lipid films with native CN or VN dissolved in 10 mM sodium phosphate, 9% sucrose, pH 7.2. The mixture was incubated at 65° C. for 5-10 minutes. Hydration was followed by probe sonication until the suspension was translucent. […]
The concentration of liposome entrapped CN/VN was determined by disruption of the liposomes with chloroform/methanol/water (10:40:50) followed by centrifugation at 14,000×g. The supernatant was analyzed for CN/VN concentration using BCA protein assay (Smith et al., Anal. Biochem. 150(1): 76-85 (1985)). The encapsulation efficiency was assessed by BCA protein determination following disruption of the LrCN with a solution of H2O methanol: chloroform.

| Molecule | inhibition of platelet aggregation ([1]; even at low μM concentrations) | inhibition of MDA-MB-435 cell invasion (MDA-MB-435 cells) | inhibition of adhesion of MDA-MB-435 cells to immobilized fibronectin (Fn) [2] | inhibition of adhesion of MDA-MB-435 cells to immobilized vitronectin (Vn) [3] | mean tumor volume after four weeks (PC-3 tumors) [mm^3] | suppression of growth of PC-3 tumors (PC-3 tumors) | IC50 in the platelet inhibition assay ([1]; ADP 1 μM induced aggregation) | protein in the encapsulation solution entrapped within the liposomes [4] [%] |
| --- | --- | --- | --- | --- | --- | --- | --- | --- |
| rCN: recombinant CN disintegrin domain without the HKGPAT sequence | did not inhibit platelet aggregation | inactive in the nanomolar range | inactive in the nanomolar range | inactive in the nanomolar range |  |  |  |  |
| CC(=O)O[C@@]12CO[C@@H]1C[C@H](O)[C@@]1(C)C(=O)[C@H](O)C3=C(C)[C@@H](OC(=O)[C@H](O)[C@@H](NC(=O)OC(C)(C)C)c4ccccc4)C[C@@](O)([C@@H](OC(=O)c4ccccc4)[C@H]21)C3(C)C [docetaxel, reference compound] |  |  |  |  | 259±38 | significantly suppressed |  |  |
| B1 |  |  | inhibited adhesion | inhibited adhesion | 195±40 | significantly suppressed | almost identical | 80 |
